test: soluble fraction after stress (log2 fold change); higher = more stays soluble; pooled small domains, quantitative proteomics; conditions: stress: 75 degC
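Also: 20 min heating vs room temperature control held 20 min.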

Sequence | soluble fraction (log2)
HMDTLESYVKRLEKLEGIADSFKGVSKAFALQAGREIRIMVESEKITDEEAVWLSKDIARRIENELEYPG | -0.331
HMDTNKMLIVNSISNGMKRLQELQDPQLAEIQKTFSGLDEQKATSAQLAQINNIINNRIAEIEG | 0.23
HMDTNPKVIITMDGVNVRSSASTGSDILFIAEKGEEYELISESGDFYKILYEGNKEGYVASWLVETSE | 0.239
HMDTNVKLLSPKQADFFASKLANNQNFSSKFAKVGEDMQPFIERISSELQQDISQVIVYMPYLLESGFKQ | -0.328
HMDTNVPVPNVNGMTLNQAKAALEAAGFHVAVNWLGEKSDNNSVISYEPNGSAAKGTTITITVIAQPEQDG | 0.0988
HMDTPPGLSPEEQAIIDIITTRGDATINELTASIDIPTPRLMGMLVDMEFRSLIAAIPGGRYRI | -1.82
HMDTRQFWEQWVADEIRTFEHKDRKQLFGWFEGNKPKLGQMKKLGYGDLLTKVQTSWDEIYQQKE | 0.0857
HMDTRSSARKALDAVNLLLETYGAKAYQHSYEIAGRRQQFQTPGDFMAFRSRLMAEVATEENAARINA | -0.211
HMDTSKIDYSEFITMLDKGEVESVVLKSDTLTVTLKHGTGMAAQTKTVTLMEDLSELTKRLEKAGVKSFDK | 0.614
HMDTVIAEVTASILNLRRSAGTSSDIIGKLNKGEKVSIIGGSGNWKNVRTSGGITGWVYHEYLSTY | -1.46
HMDTYDSIDSILEERHLSRRKLAQAIGLPPSTFQSMMSRKSGMTLEVLMKIVSYLQVSPDAFW | -3.17
HMDVAWDAIKAKLKEVVDAEDKAHPLNDDQIVKALGESGITIARRTIAKYRDLLGIPPARKRKA | -0.213
HMDVIGLEAAKSAAVKDAGISSPTFTKATLDRDDGRSLYEIEFISGSTKYEYDIDALTGSVLSKKTRALS | 0.207
HMDVKPWERQEGESAKAFEAFTIYAGLGADRSLRAVAQQLGKSKTLMDRWSSTYSWVARAAEYDADLQRK | -0.489
HMDVLFGNRLRQLLDERNISQAHFADRIGVSRSRMNNYVAQRSEPDYATLIRIANTLDTSIDFLLGKS | -2.36
HMDVLIQEIGKRLRIQRLAMGLTQEELAKRAGISLSTLKLMEQQGKGSLQRLAKVAVVLDLDGDLRGLF | -2.87
HMDVLKVFSHNVRRYRTQLGLSQETVAFRTGLHRTYISAVERGKRSISLDNIQKIADALEVETYLLFI | -1.76
HMDVLNPGDKAVTTASWLNFRTGPGMQNKVASVLARNTTVNIIEKSNEWYKVSLANGSTGYVHGMYLSKIT | -1.73
HMDVLSQYGSRGEEVGKIQTRLKSWGYFSGEVTGYYGSQTTEAVKRFQQKHGLSATGVADRKTLELIGIS | -0.307
HMDVLTARENEVLQLLAKGMSNKEIASVLVITEKTVKAHVSSILSKLNLSDRTQAALYAVKNGI | -0.763
HMDVNMLVTGMLHKGEKSFVRVSFLRGKDWAEGIVPDAKIEKSQGFMEEEVARLEAYLLEQKSMIMEQA | -1.83
HMDVQGFVMDLDKPLDKEPIVEGFELKLEDSLTLVAAVNKDKSINSLFDELSKLGIKVKSMRNPP | 0.0316
HMDVQNLTKKNQEFINIVTHQLLQSGKSDEDIQTILAKTLPEIIEKQKQGIPARSFLGAPTAWAAQFI | -0.0596
HMDVRLAKVYMLPANPYLRFIEFDDGTHGKFRAKPGKFGLGSVVKVKREDGDMYTLEGNYDGKDRL | -0.763
HMDVSPVRLIREARGLSQVEVAKAAGLSRAAYQNIEVGKTVPRASTMVNIARALGVSMDDLLAPV | -0.437
HMDVSVPDVTGTRLDRAQSLLEAQGLTLGKVEEFFHATEPAGIVYDQEPRPGTRVDEGTAISVSVSKGPEA | 0.323
HMDWFDELKVSTDDSGRVTAPEESEFMFQTSNEKIFAGGDMVRGSDLVVTAIWEGRQAAEGIMDYLD | -0.02
HMDWPDDETIARIYALIKSDISSQARKVMELRFSEGMPFARIAAAMGISETAVYRHLSHALTVIRQKLN | -2.14

From the domain aggregation screens of Martell et al. (2025)
